Results: patent US20260242478A1 (published 2026)
Where no end group is shown, it is not given here.

B1: Phage-2344 (peptide)
peptide: LMNWCTPAWMCTGF
notes: Peptide-180 library clone, tested as clonal phage supernatant (peptide fused to the pIII filament of the bacteriophage)
B2: Phage-2351 (peptide)
peptide: PMKWCIPEWMCIAS
notes: as for B1
B3: Phage-2358 (peptide)
peptide: PVKWCVPPWMCAAT
modifications: cysteine pairing not given here; also: displayed on bacteriophage by fusion to pIII
notes: as for B1
B4: Phage-2350 (peptide)
peptide: MDRWCIPEWMCARH
modifications: cysteine pairing not given here; also: displayed on bacteriophage by fusion to pIII
notes: as for B1
B5: Phage-2355 (peptide)
peptide: FENWCTPSWMCSGF
notes: as for B1
B6: Phage-2353 (peptide)
peptide: SEEWCIPPWMCLGR
notes: as for B1
B7: Phage-2346 (peptide)
peptide: WDRLCIPPWMCDVM
notes: as for B1
B8: Phage-2349 (peptide)
peptide: LSNWCVPLWMCEMV
notes: as for B1
B9: Phage-2345 (peptide)
peptide: FDMLCNPKWMCEGF
notes: as for B1
B10: Phage-2354 (peptide)
peptide: NDHWCIPPWMCAPY
modifications: cysteine pairing not given here; also: displayed on bacteriophage by fusion to pIII
notes: as for B1
B11: Phage-2347 (peptide)
peptide: SENWCIPNWMCSGL
notes: as for B1
B12: Phage-2348 (peptide)
peptide: MEKWCTPSWMCQWM
notes: as for B1
B13: Phage-2357 (peptide)
peptide: AERWCIPSWMCELA
notes: as for B1
B14: Phage-2352 (peptide)
peptide: IDHWCTPAWMCRGF
notes: as for B1
B15: Phage-2356 (peptide)
peptide: VPKWCTPTWMCIHM
notes: as for B1
B16: Phage-2337 (peptide)
peptide: MVKLCIPEWMCDRQ
B17: Phage-2339 (peptide)
peptide: EGISCVPNWMCVGF
B18: Phage-2334 (peptide)
peptide: EFIRCLPPWMCAGF
modifications: cysteine pairing not given here; also: displayed on bacteriophage by fusion to pIII
B19: Phage-2335 (peptide)
peptide: ASNWCIPTWMCEGS
B20: Phage-2336 (peptide)
peptide: EPKWCTPAWMCSIV
B21: Phage-2343 (peptide)
peptide: SDTWCIPAWMCEGR
B22: Phage-2341 (peptide)
peptide: GEIWCTPSWMCWGL
B23: Phage-2342 (peptide)
peptide: ELMWCIPPWMCEHS
B24: Phage-2338 (peptide)
peptide: WYKWCTPAWMCEIS
B25: Phage-2333 (peptide)
peptide: TVKWCIPSWMCQQS
B26: Phage-2340 (peptide)
peptide: LVHMCKPAWMCTNL
B27: Phage-2422 (peptide)
peptide: WTNTCIPMWMCEGF
notes: Peptide-180 library clone, tested as clonal phage (peptide fused to pIII)
B28: Phage-2435 (peptide)
peptide: GINWCTPSWMCTGF
notes: as for B27
B29: Phage-2425 (peptide)
peptide: DENWCKPLWMCEGF
notes: as for B27
B30: Phage-2421 (peptide)
peptide: EFKWCIPKWMCMVD
notes: as for B27
B31: Phage-2426 (peptide)
peptide: LWMSCIPPWMCANV
modifications: cysteine pairing not given here; also: displayed as fusion to phage pIII
notes: as for B27
B32: Phage-2428 (peptide)
peptide: ADRLCIPPWMCEMK
notes: as for B27
B33: Phage-2430 (peptide)
peptide: EIKWCTPPWMCTIG
notes: as for B27
B34: Phage-2423 (peptide)
peptide: LTNWCTPQWMCLGF
notes: as for B27
B35: Phage-2432 (peptide)
peptide: EVKWCIPNWMCAAS
modifications: cysteine pairing not given here; also: displayed as fusion to phage pIII
notes: as for B27
B36: Phage-2433 (peptide)
peptide: GDNWCKPAWMCRDM
notes: as for B27
B37: Phage-2424 (peptide)
peptide: LVNWCTPPWMCWHD
notes: as for B27
B38: Phage-2434 (peptide)
peptide: EERWCIPEWMCSRI
notes: as for B27
B39: Phage-2431 (peptide)
peptide: VLKWCTPPWMCWDI
notes: as for B27
B40: Phage-2429 (peptide)
peptide: GEKWCIPEWMCVTT
notes: as for B27
B41: Phage-2427 (peptide)
peptide: EYKWCVPIWMCAYD
modifications: cysteine pairing not given here; also: displayed as fusion to phage pIII
notes: as for B27
B42: Phage-2436 (peptide)
peptide: MPKWCTPSWMCSPS

These binders were tested against T1, PSMA Fab (assay: clonal phage ELISA on biotinylated PSMA Fab captured on neutravidin, anti-M13 HRP detection;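 further: crude clonal phage supernatants added to wells pretreated with PSMA antigen in blocking buffer or with blocking buffer only, then briefly incubated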).
T1 construct: also called Anti-PSMA Fab; 006 PSMA Fab
Protocol: (§1) Clonal phage were harvested as crude supernatants and screened via standard ELISAs. […] Prior to the addition of clonal phage. wells were incubated with blocking buffer and PSMA antigen or blocking buffer alone. Without washing or aspirating, clonal phage supernatants were then added to the wells and incubated for a short time. Wells were then washed followed by detection of bound phage using a horse radish conjugated anti-M13 antibody.

Point of comparison: B15, “Phage binding ELISA signal, Anti-PSMA Fab” value 1.42. Against it:
- B1 — higher, 1.43
- B2 — higher, 1.43
- B3 — the same, 1.42
- B4 — higher, 1.43
- B5 — the same, 1.42
- B6 — higher, 1.43
- B7 — higher, 1.43
- B8 — higher, 1.43
- B9 — higher, 1.43
- B10 — the same, 1.42
- B11 — higher, 1.43
- B12 — higher, 1.43
- B13 — the same, 1.42
- B14 — higher, 1.43

Each binder was assayed against T2, PSMA Fab (006 PSMA Fab) (biotinylated (site not stated)) (assay: phage ELISA, clonal phage on biotinylated PSMA Fab captured on neutravidin plate, anti-M13 HRP detection;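 further: crude clonal phage supernatants added to wells preincubated with PSMA antigen in blocking buffer or with blocking buffer only, giving a competition and a no-competitor control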).
T2 construct: also called Anti-PSMA Fab

Point of comparison: B18, “Phage binding ELISA signal, Anti-PSMA Fab” value 1.44. Against it:
- B16 — the same, 1.44
- B17 — the same, 1.44
- B19 — the same, 1.44
- B20 — the same, 1.44
- B21 — lower, 1.43
- B22 — lower, 1.43
- B23 — lower, 1.43
- B24 — the same, 1.44
- B25 — the same, 1.44
- B26 — the same, 1.44

What follows are binders tested against T1, PSMA Fab (assay: clonal phage ELISA on captured PSMA Fab pre-incubated with PSMA antigen (competitor: PSMA)).
Protocol: as §1

Point of comparison: B5, “Phage binding ELISA signal, Anti-PSMA Fab with PSMA antigen” value 0.0807. Against it:
- B1 — higher, 0.0919
- B2 — higher, 0.102
- B3 — lower, 0.0663
- B4 — lower, 0.0537
- B6 — lower, 0.0756
- B7 — lower, 0.0803
- B8 — lower, 0.0796
- B9 — lower, 0.0643
- B10 — lower, 0.0707
- B11 — lower, 0.0725
- B12 — higher, 0.0828
- B13 — lower, 0.0756
- B14 — lower, 0.0775
- B15 — lower, 0.0649

Each binder was assayed against T2, PSMA Fab (006 PSMA Fab) (assay: phage ELISA on captured PSMA Fab, wells pre-incubated with PSMA antigen as competitor).
Protocol: as §1

Point of comparison: B21, “phage binding ELISA signal (Anti-PSMA Fab pre-incubated with PSMA antigen)” value 0.0667. Against it:
- B16 — lower, 0.0609
- B17 — higher, 0.119
- B18 — higher, 0.0734
- B19 — higher, 0.0671
- B20 — higher, 0.0668
- B22 — lower, 0.0653
- B23 — higher, 0.0888
- B24 — higher, 0.143
- B25 — higher, 0.102
- B26 — higher, 0.0708

The binders below were run against T3, PSMA Fab (assay: phage ELISA; biotinylated PSMA Fab on neutravidin plate, clonal phage supernatant, anti-M13 HRP; wells pre-incubated with PSMA antigen as competitor).
T3 construct: Biotinylated and captured on neutravidin coated plates in the phage ELISA; also called 006 PSMA Fab; Anti-PSMA Fab
Protocol: as §1

Point of comparison: B36, “phage binding ELISA signal” value 0.0728. Against it:
- B27 — higher, 0.0808
- B28 — lower, 0.0711
- B29 — higher, 0.0991
- B30 — higher, 0.0948
- B31 — higher, 0.137
- B32 — lower, 0.0685
- B33 — higher, 0.102
- B34 — higher, 0.0731
- B35 — higher, 0.077
- B37 — higher, 0.0827
- B38 — lower, 0.0557
- B39 — higher, 0.123
- B40 — lower, 0.0637
- B41 — higher, 0.0826

The binders below were run against T4, PSMA Fab (biotinylated (site not stated)) (assay: clonal phage ELISA; biotinylated PSMA Fab on neutravidin plate pre-incubated with PSMA antigen as competitor; anti-M13 HRP detection;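 further: crude clonal phage supernatants briefly incubated on wells preloaded with PSMA antigen in blocking buffer, or buffer only as control, bound phage detected with HRP-conjugated anti-M13 antibody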).
T4 construct: Biotinylated PSMA Fab captured on neutravidin plates in the phage ELISA; also called Anti-PSMA Fab; 006 PSMA Fab

With B42 the “Phage binding ELISA signal, Anti-PSMA Fab in presence of PSMA” value was 0.0576.

What follows are binders tested against T4, PSMA Fab (assay: clonal phage ELISA; biotinylated PSMA Fab on neutravidin plate; anti-M13 HRP detection; blocking buffer alone).
Protocol: as §1

In the case of B42, the “Phage binding ELISA signal, Anti-PSMA Fab” value is reported as 1.31.

What follows are binders tested against T3, PSMA Fab (assay: phage ELISA; biotinylated PSMA Fab on neutravidin plate, clonal phage supernatant, anti-M13 HRP; no PSMA antigen).
Protocol: as §1

Point of comparison: B39, “phage binding ELISA signal” value 1.32. Against it:
- B27 — higher, 1.33
- B28 — lower, 1.31
- B29 — higher, 1.33
- B30 — higher, 1.33
- B31 — higher, 1.33
- B32 — higher, 1.33
- B33 — the same, 1.32
- B34 — higher, 1.33
- B35 — the same, 1.32
- B36 — the same, 1.32
- B37 — higher, 1.33
- B38 — the same, 1.32
- B40 — the same, 1.32
- B41 — higher, 1.33
